Experimental data reported in US20210395344A1 (TWIST BIOSCIENCE, published 2021).

Experiments:
Experiment in all cases: phage ELISA
[1] = target: T1, SARS-CoV-2 S1 (subunit 1) protein (SARS-CoV-2, UniProt P0DTC2 16-685)
T1 construct: also called biotinylated SARS-CoV-2 S1

[2] = target: T2, COVID S1 RBM Fc fusion (Antigen 2) (SARS-CoV-2, UniProt P0DTC2 437-508)
T2 construct: domain: RBM

S1-Fc = S1-Fc (SARS-CoV-2, UniProt P0DTC2 16-685)

| Binder | screening ELISA (Avg), fold over background [1] [fold over background] | specificity ELISA, fold over background [2] [fold over background] | specificity ELISA, percent binding relative to Acro S1 [2] [%] | specificity ELISA, fold over background (S1-Fc) [fold over background] | specificity ELISA, percent binding relative to Acro S1 (S1-Fc) [%] |
| --- | --- | --- | --- | --- | --- |
| SARS-CoV-2 variant 1-41 (antibody, V domains shown) VH: EVQLLESGGGLVQPGGSLRLSCAASGFTFSSYDMSWVRQAPGKGLEWVSVISGSGGSTYYADSVKGRFTISRDNSKNTLYLQMNSLRAEDTAVYYCAKGPLVGWYFDLWGQGTLVTVSS VL: QSALTQPASVSGSPGQSITISCTGTSSDIGSYNLVSWYQQHPGKAPKLMIYEGTKRPSGVSNRFSGSKSGNTASLTISGLQAEDEADYYCCSYAGSRTYVFGGGTKLTVL | 18.1 | 1.2 | 26.3 | – | – |
| SARS-CoV-2 variant 1-49 (antibody, V domains shown) VH: EVQLLESGGGLVQPGGSLRLSCAASGFTFSSYAMYWVRQAPGKGLEWVSAISGSAGSTYYADSVKGRFTISRDNSKNTLYLQMNSLRAEDTAVYYCARDTNDFWGQGTLVTVSS VL: QSALTQPASVSGSPGQSITISCTGTSSDIGSYNLVSWYQQHPGKAPKLMIYEGTKRPSGVSNRFSGSKSGNTASLTISGLQAEDEADYYCCSYAGSRTYVFGGGTKLTVL | – | 0.8 | 78.8 | – | – |
| SARS-CoV-2 variant 1-45 (antibody, V domains shown) VH: EVQLLESGGGLVQPGGSLRLSCAASGFTFSSYAMSWVRQAPGKGLEWVSIISGSAGSTYYADSVKGRFTISRDNSKNTLYLQMNSLRAEDTAVYYCARDGYKYCLWGQGTLVTVSS VL: QSALTQPASVSGSPGQSITISCTGTSSDIGSYNLVSWYQQHPGKAPKLMIYEGTKRPSGVSNRFSGSKSGNTASLTISGLQAEDEADYYCCSYAGSRTYVFGGGTKLTVL | – | 1 | 8.3 | – | – |
| SARS-CoV-2 variant 1-46 (antibody, V domains shown) VH: EVQLLESGGGLVQPGGSLRLSCAASGFTFTSYAMSWVRQAPGKGLEWVSAISGSGGSTYYADSVKGRFTISRDNSKNTLYLQMNSLRAEDTAVYYCANDTSDFCFGYWIFDPWGQGTLVTVSS VL: QSALTQPASVSGSPGQSITISCTGTSSDIGSYNLVSWYQQHPGKAPKLMIYEGTKRPSGVSNRFSGSKSGNTASLTISGLQAEDEADYYCCSYAGSRTYVFGGGTKLTVL | – | 0.9 | 19.8 | – | – |
| SARS-CoV-2 variant 1-39 (antibody, V domains shown) VH: EVQLLESGGGLVQPGGSLRLSCAASGFTFSSYAMYWVRQAPGKGLEWVTAISGSGGSTFYADSVKGRFTISRDNSKNTLYLQMNSLRAEDTAVYYCTRPPYGYYGDYWGQGTLVTVSS VL: QSALTQPASVSGSPGQSITISCTGTSSDIGSYNLVSWYQQHPGKAPKLMIYEGTKRPSGVSNRFSGSKSGNTASLTISGLQAEDEADYYCCSYAGSRTYVFGGGTKLTVL | – | 1.3 | 6.7 | – | – |
| SARS-CoV-2 variant 1-50 (antibody, V domains shown) VH: EVQLLESGGGLVQPGGSLRLSCAASGFTFSSYDMSWVRQAPGKGLEWVSAISGSGGTTYYADSVKGRFTISRDNSKNTLYLQMNSLRAEDTAVYYCARGPLDFWGQGTLVTVSS VL: QSALTQPASVSGSPGQSITISCTGTSSDIGSYNLVSWYQQHPGKAPKLMIYEGTKRPSGVSNRFSGSKSGNTASLTISGLQAEDEADYYCCSYAGSRTYVFGGGTKLTVL | – | 0.8 | 5.9 | – | – |
| SARS-CoV-2 variant 1-48 (antibody, V domains shown) VH: EVQLLESGGGLVQPGGSLRLSCAASGFTFSSHAMYWVRQAPGKGLEWVSAISGSAGSTYYADSVKGRFTISRDNSKNTLYLQMNSLRAEDTAVYYCAHDTKDFWSGYCIFDPWGQGTLVTVSS VL: QSALTQPASVSGSPGQSITISCTGTSSDIGSYNLVSWYQQHPGKAPKLMIYEGTKRPSGVSNRFSGSKSGNTASLTISGLQAEDEADYYCCSYAGSRTYVFGGGTKLTVL | – | 0.8 | 30.3 | – | – |
| SARS-CoV-2 variant 1-2 (antibody, V domains shown) VH: EVQLLESGGGLVQPGGSLRLSCAASGFTFSSQAMSWVRQAPGKGLEWVSAISGSGGGTYYADSVKGRFTISRDNSKNTLYLQMNSLRAEDTAVYYCAKDRRFGEFDPWGQGTLVTVSS VL: QSALTQPASVSGSPGQSITISCTGTSSGVGSYNLVSWYQQHPGKAPKLMIYEGIKRPSGVSNRFSGSKSGNTASLTISGLQAEDEADYYCCSYAGSSSFVVFGGGTKLTVL | 24.2 | 1.7 | 93.5 | 1.7 | 95.4 |
| SARS-CoV-2 variant 1-35 (antibody, V domains shown) VH: EVQLLESGGGLVQPGGSLRLSCAASGFTFSNYAMSWVRQAPGKGLEWVSDISGSGGSTYYADSVKGRFTISRDNSKNTLYLQMNSLRAEDTAVYYCVKGTIPIFGVIRSAFDYWGQGTLVTVSS VL: QSALTQPASVSGSPGQSITISCTGTSSDVGSYSLVSWYQQHPGKAPKLMIYEGTKRPSGVSNRFSGSKSGNTASLTISGLQAEDEADYYCCSYAGSYSYVVFGGGTKLTVL | – | 1.6 | 7.3 | – | – |
| SARS-CoV-2 variant 1-43 (antibody, V domains shown) VH: EVQLLESGGGLVQPGGSLRLSCAASGFTFSSQAMSWVRQAPGKGLEWVTAISGSGGGTYYADSVKGRFTISRDNSKNTLYLQMNSLRAEDTAVYYCAKDTIFGEFYPWGQGTLVTVSS VL: QSALTQPASVSGSPGQSITISCTGTSSDIGSYNLVSWYQQHPGKAPKLMIYEGTKRPSGVSNRFSGSKSGNTASLTISGLQAEDEADYYCCSYAGSRTYVFGGGTKLTVL | – | 1 | 14.5 | – | – |
| SARS-CoV-2 variant 1-30 (antibody, V domains shown) VH: EVQLLESGGGLVQPGGSLRLSCAASGFTFSSYAMTWVRQAPGKGLEWVSAISGSGGSTFYADSVKGRFTISRDNSKNTLYLQMNSLRAEDTAVYYCTRPPYGDYGDYWGQGTLVTVSS VL: QSALTQPASVSGSPGQSITISCTGTSRDVGSYNLVSWYQQHPGKAPKLMIYEGTKRPSGVSNRFSGSKSGNTASLTISGLQAEDEADYYCCSYAGSRTPVVFGGGTKLTVL | 29.5 | 1.4 | 8.5 | 5.6 | 33.3 |
| SARS-CoV-2 variant 1-5 (antibody, V domains shown) VH: EVQLLESGGGLVQPGGSLRLSCAASGFTFSSQAMSWVRQAPGKGLEWVSAISGSGGGTYYADSVKGRFTISRDNSKNTLYLQMNSLRAEDTAVYYCAKDRRFGEFDPWGQGTLVTVSS VL: QSALTQPASVSGSPGQSITISCTGTSSGVGSYNLVSWYQQHPGKAPKLMIYEASKRPSGVSNRFSGSKSGNTASLTISGLQAEDEADYYCCSYAGSYTFAVFGGGTKLTVL | 20.6 | 1.4 | 92 | 1.2 | 82.9 |
| SARS-CoV-2 variant 1-3 (antibody, V domains shown) VH: EVQLLESGGGLVQPGGSLRLSCAASGFTFSSQAMSWVRQAPGKGLEWVSAISGSGGGTYYADSVKGRFTISRDNSKNTLYLQMNSLRAEDTAVYYCAKDRRFGEFDPWGQGTLVTVSS VL: QSALTQPASVSGSPGQSITISCTGISSDVGSYNLVSWYQQHPGKAPKLMIYEGTKRPSGVSNRFSGSKSGNTASLTISGLQAEDEADYYCCSYAGSSSFVVFGGGTKLTVL | 23.9 | 1.5 | 91.9 | 1.5 | 91.2 |
| SARS-CoV-2 variant 1-20 (antibody, V domains shown) VH: EVQLLESGGGLVQPGGSLRLSCAASGITFSSYAMSWVRQAPGKGLEWVSGISGSGGSTYYADSVKGRFTISRDNSKNTLYLQMNSLRAEDTAVYYCANHGSGTIFGVVIAKYYFDYWGQGTLVTVSS VL: QSALTQPASVSGSPGQSITISCTGTSSDVGHYNLVSWYQQHPGKAPKLMIYEGTKRPSGVSNRFSGSKSGNTASLTISGLQAEDEADYYCCSYAGSSSFVVFGGGTKLTVL | – | 0.8 | 14.5 | – | – |
| SARS-CoV-2 variant 1-44 (antibody, V domains shown) VH: EVQLLESGGGLVQPGGSLRLSCAASGFTFSSQAMSWVRQAPGKGLEWVTAISGSGGGTYYADSVKGRFTISRDNSKNTLYLQMNSLRAEDTAVYYCAKDRKFGEFDPWGQGTLVTVSS VL: QSALTQPASVSGSPGQSITISCTGTSSDIGSYNLVSWYQQHPGKAPKLMIYEGTKRPSGVSNRFSGSKSGNTASLTISGLQAEDEADYYCCSYAGSRTYVFGGGTKLTVL | – | 0.8 | 7.6 | – | – |
| SARS-CoV-2 variant 1-4 (antibody, V domains shown) VH: EVQLLESGGGLVQPGGSLRLSCAASGFTFSSQAMSWVRQAPGKGLEWVSAISGSGGGTYYADSVKGRFTISRDNSKNTLYLQMNSLRAEDTAVYYCAKDRRFGEFDPWGQGTLVTVSS VL: QSALTQPASVSGSPGQSITISCTGTSSDVGTYNLVSWYQQHPGKAPKLMIYEGSQRPSGVSNRFSGSKSGNTASLTISGLQAEDEADYYCCSYAGSSSFVVFGGGTKLTVL | 20.6 | 1.1 | 105 | 0.9 | 90.8 |
